Assay results reported in PMC9482650, “Quantitative fragmentomics allow affinity mapping of interactomes” (Nature Communications, 2022).

T1: MPP7, Q5T2T1
T1 sequence (Q5T2T1 134-230, limits assumed, looked up): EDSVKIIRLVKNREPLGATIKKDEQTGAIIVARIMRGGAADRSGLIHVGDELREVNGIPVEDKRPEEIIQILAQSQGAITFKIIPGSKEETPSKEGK

T2: LIN7B, Q9HAP6
T2 sequence (Q9HAP6 88-185, limits assumed, looked up): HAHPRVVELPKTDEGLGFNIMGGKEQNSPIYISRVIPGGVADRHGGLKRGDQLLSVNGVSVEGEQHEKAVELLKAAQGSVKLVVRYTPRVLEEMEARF

T3: PDZRN3_1, Q9UPQ7
T3 sequence (Q9UPQ7 244-349, limits assumed, looked up): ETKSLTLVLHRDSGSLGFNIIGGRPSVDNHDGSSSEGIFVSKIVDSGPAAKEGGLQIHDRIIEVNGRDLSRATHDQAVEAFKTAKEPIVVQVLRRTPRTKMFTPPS

T4: DFNB31_2, Q9P202
T4 sequence (Q9P202 274-371, limits assumed, looked up): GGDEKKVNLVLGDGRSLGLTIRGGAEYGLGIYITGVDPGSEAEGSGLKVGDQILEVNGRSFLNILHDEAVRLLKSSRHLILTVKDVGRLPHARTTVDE

T5: DLG3_2, Q92796
T5 sequence (Q92796 221-321, limits assumed, looked up): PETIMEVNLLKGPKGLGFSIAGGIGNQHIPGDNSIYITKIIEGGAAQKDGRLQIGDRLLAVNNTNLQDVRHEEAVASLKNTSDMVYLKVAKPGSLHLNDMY

T6: HTRA4, P83105
T6 sequence (P83105 378-476, limits assumed, looked up): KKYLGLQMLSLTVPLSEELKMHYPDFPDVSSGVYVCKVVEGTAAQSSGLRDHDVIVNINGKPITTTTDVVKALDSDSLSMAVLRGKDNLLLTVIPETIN

T7: GRIP1_3, Q9Y3R0
T7 sequence (Q9Y3R0 247-346, limits assumed, looked up): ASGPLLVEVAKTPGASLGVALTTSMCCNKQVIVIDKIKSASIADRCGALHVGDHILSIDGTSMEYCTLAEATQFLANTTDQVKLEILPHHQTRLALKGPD

T8: MPP6, Q9NZW5
T8 sequence (Q9NZW5 125-219, limits assumed, looked up): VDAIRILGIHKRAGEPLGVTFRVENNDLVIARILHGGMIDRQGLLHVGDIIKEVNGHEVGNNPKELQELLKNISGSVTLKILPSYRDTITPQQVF

T9: ARHGAP21, Q5T5U3
T9 sequence (Q5T5U3 45-169, limits assumed, looked up): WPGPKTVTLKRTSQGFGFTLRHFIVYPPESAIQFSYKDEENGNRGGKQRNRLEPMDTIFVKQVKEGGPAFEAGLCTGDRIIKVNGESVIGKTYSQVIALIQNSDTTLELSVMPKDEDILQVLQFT

T10: SYNJ2BP, P57105
T10 sequence (P57105 8-110, limits assumed, looked up): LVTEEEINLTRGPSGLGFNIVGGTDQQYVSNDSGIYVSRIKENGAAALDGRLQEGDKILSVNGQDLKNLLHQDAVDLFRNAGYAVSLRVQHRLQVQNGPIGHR

T11: NHERF3_1, Q5T2W1
T11 sequence (Q5T2W1 4-100, limits assumed, looked up): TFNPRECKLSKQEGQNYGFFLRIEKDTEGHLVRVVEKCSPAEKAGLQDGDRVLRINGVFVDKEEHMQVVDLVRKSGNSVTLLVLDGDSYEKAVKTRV

T12: SNTG1, Q9NSN8
T12 sequence (Q9NSN8 52-150, limits assumed, looked up): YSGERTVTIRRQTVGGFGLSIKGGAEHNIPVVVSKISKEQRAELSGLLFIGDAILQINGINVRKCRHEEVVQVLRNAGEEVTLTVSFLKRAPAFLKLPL


Legend:
Experiment in all cases: holdup assay
Parameters in all cases: key: below the threshold = too weak to quantify, mostly under pKd 3.1 to 4
Details in all cases: plain residues with an end cap or a label only (N-terminal biotin on a linker: ado-ado)
MAGI3_2, Q5TCQ9 = target: MAGI3_2, Q5TCQ9
Chain of MAGI3_2, Q5TCQ9 (Q5TCQ9 398-503): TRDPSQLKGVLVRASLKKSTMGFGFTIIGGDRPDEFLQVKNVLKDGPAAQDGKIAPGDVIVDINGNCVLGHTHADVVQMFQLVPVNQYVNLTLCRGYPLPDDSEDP

MPP7, Q5T2T1 = target: T1, MPP7, Q5T2T1
Inadl_10, Q8NI35 = target: Inadl_10, Q8NI35
Chain of Inadl_10, Q8NI35 (Q8NI35 1673-1763): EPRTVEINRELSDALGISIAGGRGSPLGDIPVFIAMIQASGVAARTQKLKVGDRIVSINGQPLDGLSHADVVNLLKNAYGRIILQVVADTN

LIN7B, Q9HAP6 = target: T2, LIN7B, Q9HAP6
PDZRN3_1, Q9UPQ7 = target: T3, PDZRN3_1, Q9UPQ7
DFNB31_2, Q9P202 = target: T4, DFNB31_2, Q9P202
Inadl_2, Q8NI35 = target: Inadl_2, Q8NI35
Chain of Inadl_2, Q8NI35 (Q8NI35 238-335): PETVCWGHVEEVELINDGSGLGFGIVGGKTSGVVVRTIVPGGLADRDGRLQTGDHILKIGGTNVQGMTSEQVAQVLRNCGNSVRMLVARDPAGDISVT

MAGI1_2, Q96QZ7 = target: MAGI1_2, Q96QZ7
Chain of MAGI1_2, Q96QZ7 (Q96QZ7 456-580): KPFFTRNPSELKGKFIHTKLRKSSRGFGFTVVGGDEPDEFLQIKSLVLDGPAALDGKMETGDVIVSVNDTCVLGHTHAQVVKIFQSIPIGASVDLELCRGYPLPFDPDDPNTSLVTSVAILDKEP

GIPC2, Q8TF65 = target: GIPC2, Q8TF65
Chain of GIPC2, Q8TF65 (Q8TF65 112-203): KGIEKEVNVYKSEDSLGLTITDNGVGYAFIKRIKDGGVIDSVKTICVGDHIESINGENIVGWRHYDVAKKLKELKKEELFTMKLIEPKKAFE

Inadl_6, Q8NI35 = target: Inadl_6, Q8NI35
Chain of Inadl_6, Q8NI35 (Q8NI35 1058-1167): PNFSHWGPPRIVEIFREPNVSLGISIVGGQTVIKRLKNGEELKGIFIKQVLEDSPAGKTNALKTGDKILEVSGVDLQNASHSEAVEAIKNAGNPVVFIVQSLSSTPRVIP

GRIP2_7, Q9C0E4 = target: GRIP2_7, Q9C0E4
Chain of GRIP2_7, Q9C0E4 (Q9C0E4 934-1023): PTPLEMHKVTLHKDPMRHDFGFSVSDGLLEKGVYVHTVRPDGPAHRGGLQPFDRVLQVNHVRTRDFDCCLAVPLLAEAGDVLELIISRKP

DLG3_2, Q92796 = target: T5, DLG3_2, Q92796
MAGI2_5, Q86UL8 = target: MAGI2_5, Q86UL8
Chain of MAGI2_5, Q86UL8 (Q86UL8 915-1017): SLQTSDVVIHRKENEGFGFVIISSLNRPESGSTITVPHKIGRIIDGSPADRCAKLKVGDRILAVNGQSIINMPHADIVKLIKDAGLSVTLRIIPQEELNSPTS

PICK1, Q9NRD5 = target: PICK1, Q9NRD5
Chain of PICK1, Q9NRD5 (Q9NRD5 17-115): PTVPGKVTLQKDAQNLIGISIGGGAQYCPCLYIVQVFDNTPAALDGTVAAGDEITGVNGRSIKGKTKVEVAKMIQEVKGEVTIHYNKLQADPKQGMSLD

HTRA4, P83105 = target: T6, HTRA4, P83105
GRIP1_3, Q9Y3R0 = target: T7, GRIP1_3, Q9Y3R0
GRIP2_5, Q9C0E4 = target: GRIP2_5, Q9C0E4
Chain of GRIP2_5, Q9C0E4 (Q9C0E4 544-642): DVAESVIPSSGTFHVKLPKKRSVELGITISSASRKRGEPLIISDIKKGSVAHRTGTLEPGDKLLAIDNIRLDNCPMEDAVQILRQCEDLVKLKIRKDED

MPP6, Q9NZW5 = target: T8, MPP6, Q9NZW5
LDB3, O75112 = target: LDB3, O75112
Chain of LDB3, O75112 (O75112 1-94): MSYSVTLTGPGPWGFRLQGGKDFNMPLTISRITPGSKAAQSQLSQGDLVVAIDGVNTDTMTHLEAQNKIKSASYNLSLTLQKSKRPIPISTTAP

ARHGAP21, Q5T5U3 = target: T9, ARHGAP21, Q5T5U3
SYNJ2BP, P57105 = target: T10, SYNJ2BP, P57105
NHERF3_1, Q5T2W1 = target: T11, NHERF3_1, Q5T2W1
SNTG1, Q9NSN8 = target: T12, SNTG1, Q9NSN8
FRMPD2_3, Q68DX3 = target: FRMPD2_3, Q68DX3
Chain of FRMPD2_3, Q68DX3 (Q68DX3 1073-1166): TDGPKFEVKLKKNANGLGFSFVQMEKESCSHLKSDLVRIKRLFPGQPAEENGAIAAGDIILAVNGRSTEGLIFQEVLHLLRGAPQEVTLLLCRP

pKd (MAGI3_2, Q5TCQ9)	pKd (MPP7, Q5T2T1)	pKd (Inadl_10, Q8NI35)	pKd (LIN7B, Q9HAP6)	pKd (PDZRN3_1, Q9UPQ7)	pKd (DFNB31_2, Q9P202)	pKd (Inadl_2, Q8NI35)	pKd (MAGI1_2, Q96QZ7)	pKd (GIPC2, Q8TF65)	pKd (Inadl_6, Q8NI35)	pKd (GRIP2_7, Q9C0E4)	pKd (DLG3_2, Q92796)	pKd (MAGI2_5, Q86UL8)	pKd (PICK1, Q9NRD5)	pKd (HTRA4, P83105)	pKd (GRIP1_3, Q9Y3R0)	pKd (GRIP2_5, Q9C0E4)	pKd (MPP6, Q9NZW5)	pKd (LDB3, O75112)	pKd (ARHGAP21, Q5T5U3)	Binder	other results
4	below the threshold	below the threshold	3.53	below the threshold	below the threshold	below the threshold	below the threshold	below the threshold	below the threshold	below the threshold	3.54	below the threshold	4.09	below the threshold	below the threshold	below the threshold	below the threshold	below the threshold	3.92	VGIERETDVL [EZH1, Q92800]	pKd (SYNJ2BP, P57105): below the threshold; pKd (NHERF3_1, Q5T2W1): below the threshold; pKd (SNTG1, Q9NSN8): below the threshold; pKd (FRMPD2_3, Q68DX3): below the threshold
below the threshold	below the threshold	below the threshold	3.74	below the threshold	below the threshold	below the threshold	below the threshold	3.62	below the threshold	below the threshold	4.04	below the threshold	below the threshold	below the threshold	below the threshold	below the threshold	below the threshold	below the threshold	below the threshold	PEEGKKQSQC [GAGE12J, A6NER3]	pKd (SYNJ2BP, P57105): 3.54; pKd (NHERF3_1, Q5T2W1): 3.68; pKd (SNTG1, Q9NSN8): below the threshold; pKd (FRMPD2_3, Q68DX3): below the threshold
3.63	below the threshold	below the threshold	3.82	below the threshold	below the threshold	below the threshold	below the threshold	below the threshold	below the threshold	below the threshold	3.75	below the threshold	below the threshold	below the threshold	below the threshold	below the threshold	below the threshold	below the threshold	below the threshold	SSGSTSSSRI [ADGRG1, Q9Y653]	pKd (SYNJ2BP, P57105): below the threshold; pKd (NHERF3_1, Q5T2W1): 4.48; pKd (SNTG1, Q9NSN8): below the threshold; pKd (FRMPD2_3, Q68DX3): below the threshold
below the threshold	below the threshold	below the threshold	3.75	below the threshold	below the threshold	below the threshold	below the threshold	below the threshold	below the threshold	below the threshold	4.22	below the threshold	below the threshold	below the threshold	below the threshold	below the threshold	below the threshold	below the threshold	below the threshold	EGGKKRESEA [APPL1, Q9UKG1]	pKd (SYNJ2BP, P57105): below the threshold; pKd (NHERF3_1, Q5T2W1): below the threshold; pKd (SNTG1, Q9NSN8): below the threshold; pKd (FRMPD2_3, Q68DX3): below the threshold
below the threshold	below the threshold	below the threshold	below the threshold	3.89	below the threshold	below the threshold	below the threshold	3.63	below the threshold	3.47	below the threshold	below the threshold	below the threshold	below the threshold	below the threshold	3.65	below the threshold	below the threshold	3.87	QLAEIAESGL [ITK, Q08881]	pKd (SYNJ2BP, P57105): 3.84; pKd (NHERF3_1, Q5T2W1): 4.76; pKd (SNTG1, Q9NSN8): 3.72; pKd (FRMPD2_3, Q68DX3): below the threshold
5.32	below the threshold	below the threshold	below the threshold	3.69	below the threshold	below the threshold	4.14	below the threshold	3.53	below the threshold	5.2	4.06	below the threshold	3.74	below the threshold	below the threshold	3.82	below the threshold	3.73	PKLMGVETVV [DUSP10, Q9Y6W6]	pKd (SYNJ2BP, P57105): 4.69; pKd (NHERF3_1, Q5T2W1): below the threshold; pKd (SNTG1, Q9NSN8): 4.47; pKd (FRMPD2_3, Q68DX3): 3.61
